Measurements taken from article PMC6778029 (Molecular cell, 2019).
Residue numbers refer to the chain shown, from its start.

B1: recombinant hnRNPG RGG1mut (natural protein, human, UniProt P38159 1-391, looked up)
chain: MVEADRPGKLFIGGLNTETNEKALEAVFGKYGRIVEVLLMKDRETNKSRGFAFVTFESPADAKDAARDMNGKSLDGKAIKVEQATKPSFESGRRGPPPPPRSRGPPRGLAGGAGGSGGTAGPPSAGGHMDDGGYSMNFNMSSSRGPLPVKRGPPPRSGGPPPKRSAPSGPVRSSSGMGGRAPVSRGRDSYGGPPRREPLPSRRDVYLSPRDDGYSTKDSYSSRDYPSSRDTRDYAPPPRDYTYRDYGHSSSRDDYPSRGYSDRDGYGRDRDYSDHPSGGSYRDSYESYGNSRSAPPTRGPPPSYGGSSRYDDYSSSRDGYGGSRDSYSSSRSDLYSSGRDRVGRQERGLPPSMERGYPPPRDSYSSSSRGAPRGGGRGGSRSDRGGGRSRY
B2: recombinant hnRNPG RGG2mut (natural protein, human, UniProt P38159 1-391, looked up)
chain: B1 chain with A110R, A113R, A120R, A125R, R369A, R373A, R377A
B3: recombinant hnRNPG RRMmut (natural protein, human, UniProt P38159 1-391, looked up)
chain: B1 chain with K9A, F11A, R49A, F51A, F53A, A110R, A113R, A120R, A125R

Target: the molecule itself
Experiment: dynamic light scattering

| Protein | binding result |
| --- | --- |
| B1 | binds |
| B2 | binds |
| B3 | binds |
